How the values were obtained:
[1] = system: Uroporphyrinogen decarboxylase (Gallus gallus); assay: Activity at chicken red cell hemolysate URO-D assessed as product formation after 150 mins
[2] = target: T1, Oxygen-dependent coproporphyrinogen-III oxidase, mitochondrial (Homo sapiens) (UniProt P36551); assay: Activity at recombinant human CPO assessed as product formation after 30 mins
T1 sequence (whole entry): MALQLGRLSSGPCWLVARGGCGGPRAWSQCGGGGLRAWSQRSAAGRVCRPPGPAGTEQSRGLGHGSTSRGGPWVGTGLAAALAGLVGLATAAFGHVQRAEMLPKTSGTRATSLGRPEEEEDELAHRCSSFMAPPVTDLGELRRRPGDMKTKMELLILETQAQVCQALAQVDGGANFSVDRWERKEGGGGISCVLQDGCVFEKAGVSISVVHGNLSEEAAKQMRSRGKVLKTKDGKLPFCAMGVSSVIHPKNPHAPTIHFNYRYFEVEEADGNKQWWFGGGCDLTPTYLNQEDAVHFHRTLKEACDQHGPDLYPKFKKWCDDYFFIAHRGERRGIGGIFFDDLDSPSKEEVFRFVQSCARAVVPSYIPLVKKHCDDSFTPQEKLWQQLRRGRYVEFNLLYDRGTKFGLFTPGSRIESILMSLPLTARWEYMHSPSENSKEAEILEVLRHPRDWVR

[3] = substrate: Cc1c2[nH]c(c1CCC(=O)O)Cc1[nH]c(c(CCC(=O)O)c1C)Cc1[nH]c(c(CCC(=O)O)c1C)Cc1[nH]c(c(C)c1CCC(=O)O)C2; assay: (§1) Activity at recombinant human CPO
[4] = substrate: Cc1c2[nH]c(c1CCC(=O)O)Cc1[nH]c(c(CCC(=O)O)c1C)Cc1[nH]c(c(CC(=O)O)c1C)Cc1[nH]c(c(C)c1CC(=O)O)C2; assay: as §1
[5] = substrate: Cc1c2[nH]c(c1CCC(=O)O)Cc1[nH]c(c(CCC(=O)O)c1C)Cc1[nH]c(c(CCCC(=O)O)c1C)Cc1[nH]c(c(C)c1CCCC(=O)O)C2; assay: as §1

Activity [2] [%]	Molecule	Activity [1] [%]	Km [3] [µM]	Km [4] [µM]	Km [5] [µM]
35.7	Cc1c2[nH]c(c1CCC(=O)O)Cc1[nH]c(c(CCC(=O)O)c1C)Cc1[nH]c(c(CC(=O)O)c1C)Cc1[nH]c(c(C)c1CC(=O)O)C2	49.5			
	Oxygen-dependent coproporphyrinogen-III oxidase, mitochondrial (Homo sapiens), P36551 (protein) MALQLGRLSSGPCWLVARGGCGGPRAWSQCGGGGLRAWSQRSAAGRVCRPPGPAGTEQSRGLGHGSTSRGGPWVGTGLAAALAGLVGLATAAFGHVQRAEMLPKTSGTRATSLGRPEEEEDELAHRCSSFMAPPVTDLGELRRRPGDMKTKMELLILETQAQVCQALAQVDGGANFSVDRWERKEGGGGISCVLQDGCVFEKAGVSISVVHGNLSEEAAKQMRSRGKVLKTKDGKLPFCAMGVSSVIHPKNPHAPTIHFNYRYFEVEEADGNKQWWFGGGCDLTPTYLNQEDAVHFHRTLKEACDQHGPDLYPKFKKWCDDYFFIAHRGERRGIGGIFFDDLDSPSKEEVFRFVQSCARAVVPSYIPLVKKHCDDSFTPQEKLWQQLRRGRYVEFNLLYDRGTKFGLFTPGSRIESILMSLPLTARWEYMHSPSENSKEAEILEVLRHPRDWVR		0.68	6.8	0.76

— ChEMBL document CHEMBL1671804, “Normal and abnormal heme biosynthesis. Part 7. Synthesis and metabolism of coproporphyrinogen-III analogues with acetate or butyrate side chains on rings C and D. Development of a modified model for the active site of coproporphyrinogen oxidase” (Bioorg Med Chem, 2011)
